Reference: patent US20230085439A1

Key:
[1] = target: hMPV 130-BV (human metapneumovirus); test: biolayer interferometry, hMPV 130-BV on anti-penta-HIS biosensors; unit inferred
[2] = target: monomeric hMPV B2 F protein treated with trypsin (human metapneumovirus); test: ELISA on coated antigen, mAb titrated; panel hMPV B2 F monomer (trypsin), key 6
[3] = target: trimeric hMPV B2 F protein treated with trypsin (human metapneumovirus); test: ELISA on coated antigen, mAb titrated; panel hMPV B2 F trimer (trypsin), key 6
[4] = target: pre-fusion RSV F protein A2 SC-TM (respiratory syncytial virus) (UniProt P03420); test: ELISA on coated antigen, mAb titrated; EC50 box, key 6

## 101F Fab
[1]
  Kd: 53 nM

## DS7 (antibody)
[2]
  EC50: 0.1 µg/mL
[3]
  EC50: 0.18 µg/mL

## MPE8 (antibody)
[4]
  EC50: 0.087 µg/mL
